Reference: US20120058126A1

Key:
[1] = biological target: human sR3-AP (Ig domains 1-3) P219L (human) (UniProt P05187); test: sR3-AP binding assay: conditioned medium on VEGF-CΔNΔC-coated plates, AP chemiluminescence, triplicate
[2] = biological target: human sR3-AP (Ig domains 1-3) V175A (human) (UniProt P05187); test: as above
Sequence of human sR3-AP (Ig domains 1-3) V175A (human) (P05187 other isoform, or with tags, fused parts or gaps V175A V175A): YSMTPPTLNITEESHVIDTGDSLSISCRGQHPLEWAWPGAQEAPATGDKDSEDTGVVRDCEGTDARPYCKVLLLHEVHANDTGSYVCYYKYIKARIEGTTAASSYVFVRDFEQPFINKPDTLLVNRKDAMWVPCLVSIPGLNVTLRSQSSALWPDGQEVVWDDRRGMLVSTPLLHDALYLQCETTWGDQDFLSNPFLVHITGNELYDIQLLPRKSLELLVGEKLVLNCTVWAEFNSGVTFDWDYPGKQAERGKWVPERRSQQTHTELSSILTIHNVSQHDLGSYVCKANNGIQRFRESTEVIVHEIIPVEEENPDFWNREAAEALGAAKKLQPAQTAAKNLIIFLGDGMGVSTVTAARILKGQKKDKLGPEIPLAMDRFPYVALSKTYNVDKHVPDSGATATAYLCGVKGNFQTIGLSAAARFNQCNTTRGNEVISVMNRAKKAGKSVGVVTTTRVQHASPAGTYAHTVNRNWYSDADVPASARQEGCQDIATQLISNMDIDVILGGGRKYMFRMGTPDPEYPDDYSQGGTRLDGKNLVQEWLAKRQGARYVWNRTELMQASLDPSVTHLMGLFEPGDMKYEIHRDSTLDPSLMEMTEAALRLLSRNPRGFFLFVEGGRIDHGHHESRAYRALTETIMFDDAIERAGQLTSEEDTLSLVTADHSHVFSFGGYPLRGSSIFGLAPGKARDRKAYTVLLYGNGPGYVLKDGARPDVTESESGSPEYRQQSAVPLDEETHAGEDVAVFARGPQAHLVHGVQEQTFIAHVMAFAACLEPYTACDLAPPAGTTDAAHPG

Sequence of recombinant mature human VEGF-CΔNΔC (P49767 112-215 limits assumed, stated change not applied): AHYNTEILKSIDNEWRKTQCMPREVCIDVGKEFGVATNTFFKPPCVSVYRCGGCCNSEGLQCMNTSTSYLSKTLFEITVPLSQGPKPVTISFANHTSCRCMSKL
Sequence of human sR3-AP (Ig domains 1-3) P219L (human) (P05187 other isoform, or with tags, fused parts or gaps P219L P219L): as the sequence (P05187 other isoform, or with tags, fused parts or gaps V175A V175A) above, with A151V, P195L counted along it

loss of binding against wild-type human sR3-AP [1]: 75% | loss of binding against wild-type human sR3-AP [2]: 50%
Substance: recombinant mature human VEGF-CΔNΔC (from UniProt P49767 112-215) (ligand)
